Consider one substance from paper PMC10966353.

This test deals with A/Singapore/INFIMH-16-0019/2016 hemagglutinin with a C-terminal sfGFP, GCN4 trimerization domain and Strep-tag (influenza A virus A/Singapore/INFIMH-16-0019/2016). As to the kind of experiment: negative stain electron microscopy.

“A/Singapore/INFIMH-16-0019/2016 hemagglutinin with a C-terminal sfGFP, GCN4 trimerization domain and Strep-tag”: the stoichiometry N came out at 3.
